Legend:
[1] = biological target: C-terminal ~65 kDa domain of Vip3Ab1, expressed from Leu222 (Bacillus thuringiensis); assay: SEC; analytical SEC, TSKgel SuperSW3000, 50 mM sodium phosphate pH 7.0 with 250 mM NaCl, 75 µl/min, 3 µl at 150 µg/ml, fluorescence detection; size from retention time against molecular weight standards; proteins not digested
[2] = biological target: Vip3Ab1 (Bacillus thuringiensis); assay: as above
[3] = biological target: Vip3Ab1 after overnight processing with H. zea midgut enzymes (~20 kDa and ~65 kDa products together) (Bacillus thuringiensis); assay: SEC; purified Vip3 protein digested overnight with H. zea gut fluid (50 mM MOPS pH 10, 30 °C), stopped with protease inhibitors, then analytical SEC on TSKgel SuperSW3000 in 50 mM sodium phosphate pH 7.0 with 250 mM NaCl; size from retention time
[4] = biological target: Vip3_AB chimera (N-terminal domain of Vip3Ab1 and C-terminal domain of Vip3Bc1) (Bacillus thuringiensis); assay: SEC; analytical SEC, TSKgel SuperSW3000, 50 mM sodium phosphate pH 7.0 with 250 mM NaCl, 75 µl/min, 3 µl at 150 µg/ml, fluorescence detection; size from retention time against molecular weight standards; proteins not digested
[5] = biological target: Vip3_BA chimera (N-terminal domain of Vip3Bc1 and C-terminal domain of Vip3Ab1) (Bacillus thuringiensis); assay: as above
[6] = biological target: the molecule itself; assay: as above
[7] = biological target: T1, ~65 kDa C-terminal product of Vip3Bc1 after gut enzyme processing (Bacillus thuringiensis, UniProt A0A290WPI2 214-803); assay: SEC; purified Vip3 protein digested overnight with H. zea gut fluid (50 mM MOPS pH 10, 30 °C), stopped with protease inhibitors, then analytical SEC on TSKgel SuperSW3000 in 50 mM sodium phosphate pH 7.0 with 250 mM NaCl; size from retention time; conditions: both partners purified
T1 construct: Vip3Bc1, GenBank MF543028, product from the cleavage 210NVTK/EVIE (processed at 214Glu); source: Vip3Bc1 from Pseudomonas fluorescens, purified, then digested overnight with H. zea gut enzymes
T1 sequence: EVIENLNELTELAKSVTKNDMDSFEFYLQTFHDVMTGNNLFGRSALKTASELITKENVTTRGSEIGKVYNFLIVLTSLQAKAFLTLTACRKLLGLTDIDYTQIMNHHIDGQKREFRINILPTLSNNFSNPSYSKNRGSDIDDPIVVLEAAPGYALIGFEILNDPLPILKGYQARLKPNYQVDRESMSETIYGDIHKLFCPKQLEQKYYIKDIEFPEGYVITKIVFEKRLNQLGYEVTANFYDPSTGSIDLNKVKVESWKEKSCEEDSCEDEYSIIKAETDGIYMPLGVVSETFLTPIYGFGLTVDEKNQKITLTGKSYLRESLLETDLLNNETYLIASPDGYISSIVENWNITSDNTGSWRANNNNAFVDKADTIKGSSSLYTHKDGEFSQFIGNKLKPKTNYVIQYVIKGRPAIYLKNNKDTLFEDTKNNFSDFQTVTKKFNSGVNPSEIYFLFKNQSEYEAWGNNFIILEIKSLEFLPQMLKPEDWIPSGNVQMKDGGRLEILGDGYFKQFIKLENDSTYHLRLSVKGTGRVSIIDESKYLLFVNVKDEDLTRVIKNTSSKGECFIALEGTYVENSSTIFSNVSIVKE

[8] = biological target: the molecule itself; assay: as above

C-terminal ~65 kDa domain of Vip3Ab1, expressed from Leu222 (domain or fragment)
stoichiometry N [1]: 2

Vip3Ab1 (natural protein)
stoichiometry N [2]: 4

Vip3Ab1 after overnight processing with H. zea midgut enzymes (~20 kDa and ~65 kDa products together) (complex)
stoichiometry N [3]: 4

Vip3_AB chimera (N-terminal domain of Vip3Ab1 and C-terminal domain of Vip3Bc1) (from UniProt A0A290WPI2 224-803)
stoichiometry N [4]: 4

Vip3_BA chimera (N-terminal domain of Vip3Bc1 and C-terminal domain of Vip3Ab1) (from UniProt A0A290WPI2 2-223)
percent tetrameric [5]: 50%
stoichiometry N [5]: 4

B1: Vip3Bc1 (natural protein)
chain: VQKWMQRMIIVDNNKLNVRALPSFIDYFNGIYGFATGIKDIMGMIFKTDTGGSNLTLDEILKNQNLLNDISGKLDGINGDLGDLIAQGNLNSELAKELLKISNEQNQMLNHVNAQLNAINSTLNIYLPKITSMLNEVMKQNHVLSLQIEFLSKQLQEISDKLDIINLNVLINSTLTEITPAYQRIKYVNEKFDELTSTVEKNPKSYQDNVTKEVIENLNELTELAKSVTKNDMDSFEFYLQTFHDVMTGNNLFGRSALKTASELITKENVTTRGSEIGKVYNFLIVLTSLQAKAFLTLTACRKLLGLTDIDYTQIMNHHIDGQKREFRINILPTLSNNFSNPSYSKNRGSDIDDPIVVLEAAPGYALIGFEILNDPLPILKGYQARLKPNYQVDRESMSETIYGDIHKLFCPKQLEQKYYIKDIEFPEGYVITKIVFEKRLNQLGYEVTANFYDPSTGSIDLNKVKVESWKEKSCEEDSCEDEYSIIKAETDGIYMPLGVVSETFLTPIYGFGLTVDEKNQKITLTGKSYLRESLLETDLLNNETYLIASPDGYISSIVENWNITSDNTGSWRANNNNAFVDKADTIKGSSSLYTHKDGEFSQFIGNKLKPKTNYVIQYVIKGRPAIYLKNNKDTLFEDTKNNFSDFQTVTKKFNSGVNPSEIYFLFKNQSEYEAWGNNFIILEIKSLEFLPQMLKPEDWIPSGNVQMKDGGRLEILGDGYFKQFIKLENDSTYHLRLSVKGTGRVSIIDESKYLLFVNVKDEDLTRVIKNTSSKGECFIALEGTYVENSSTIFSNVSIVKE
notes: Vip3Bc1, vegetative insecticidal protein of Bacillus thuringiensis, GenBank MF543028; expressed with only the first methionine removed (N-terminus VQKWM at 2); Gene was synthesized, codon biased for maize; source: Pseudomonas fluorescens, purified (ammonium sulfate precipitation, anion exchange)
stoichiometry N [6]: 4

B2: C-terminal ~65 kDa domain of Vip3Bc1, expressed from Leu222 (domain or fragment)
chain: LTELAKSVTKNDMDSFEFYLQTFHDVMTGNNLFGRSALKTASELITKENVTTRGSEIGKVYNFLIVLTSLQAKAFLTLTACRKLLGLTDIDYTQIMNHHIDGQKREFRINILPTLSNNFSNPSYSKNRGSDIDDPIVVLEAAPGYALIGFEILNDPLPILKGYQARLKPNYQVDRESMSETIYGDIHKLFCPKQLEQKYYIKDIEFPEGYVITKIVFEKRLNQLGYEVTANFYDPSTGSIDLNKVKVESWKEKSCEEDSCEDEYSIIKAETDGIYMPLGVVSETFLTPIYGFGLTVDEKNQKITLTGKSYLRESLLETDLLNNETYLIASPDGYISSIVENWNITSDNTGSWRANNNNAFVDKADTIKGSSSLYTHKDGEFSQFIGNKLKPKTNYVIQYVIKGRPAIYLKNNKDTLFEDTKNNFSDFQTVTKKFNSGVNPSEIYFLFKNQSEYEAWGNNFIILEIKSLEFLPQMLKPEDWIPSGNVQMKDGGRLEILGDGYFKQFIKLENDSTYHLRLSVKGTGRVSIIDESKYLLFVNVKDEDLTRVIKNTSSKGECFIALEGTYVENSSTIFSNVSIVKE
notes: Vip3Bc1, GenBank MF543028, beginning at Leu222; also called C-terminus of Vip3Bc1; C-terminal region of Vip3Bc1; source: Pseudomonas fluorescens, purified
stoichiometry N [6]: 2

B3: ~20 kDa N-terminal product of Vip3Bc1 after gut enzyme processing (domain or fragment)
chain: ALPSFIDYFNGIYGFATGIKDIMGMIFKTDTGGSNLTLDEILKNQNLLNDISGKLDGINGDLGDLIAQGNLNSELAKELLKISNEQNQMLNHVNAQLNAINSTLNIYLPKITSMLNEVMKQNHVLSLQIEFLSKQLQEISDKLDIINLNVLINSTLTEITPAYQRIKYVNEKFDELTSTVEKNPKSYQDNVTK
notes: Vip3Bc1, GenBank MF543028, product between the cleavage at 21Ala and the cleavage 210NVTK/EVIE (processed at 214Glu); source: Vip3Bc1 from Pseudomonas fluorescens, purified, then digested overnight with H. zea gut enzymes
binding result [7]: binds

B4: Vip3Bc1 after overnight processing with H. zea midgut enzymes (~20 kDa and ~65 kDa products together) (complex)
chain 1: ALPSFIDYFNGIYGFATGIKDIMGMIFKTDTGGSNLTLDEILKNQNLLNDISGKLDGINGDLGDLIAQGNLNSELAKELLKISNEQNQMLNHVNAQLNAINSTLNIYLPKITSMLNEVMKQNHVLSLQIEFLSKQLQEISDKLDIINLNVLINSTLTEITPAYQRIKYVNEKFDELTSTVEKNPKSYQDNVTK
chain 2: EVIENLNELTELAKSVTKNDMDSFEFYLQTFHDVMTGNNLFGRSALKTASELITKENVTTRGSEIGKVYNFLIVLTSLQAKAFLTLTACRKLLGLTDIDYTQIMNHHIDGQKREFRINILPTLSNNFSNPSYSKNRGSDIDDPIVVLEAAPGYALIGFEILNDPLPILKGYQARLKPNYQVDRESMSETIYGDIHKLFCPKQLEQKYYIKDIEFPEGYVITKIVFEKRLNQLGYEVTANFYDPSTGSIDLNKVKVESWKEKSCEEDSCEDEYSIIKAETDGIYMPLGVVSETFLTPIYGFGLTVDEKNQKITLTGKSYLRESLLETDLLNNETYLIASPDGYISSIVENWNITSDNTGSWRANNNNAFVDKADTIKGSSSLYTHKDGEFSQFIGNKLKPKTNYVIQYVIKGRPAIYLKNNKDTLFEDTKNNFSDFQTVTKKFNSGVNPSEIYFLFKNQSEYEAWGNNFIILEIKSLEFLPQMLKPEDWIPSGNVQMKDGGRLEILGDGYFKQFIKLENDSTYHLRLSVKGTGRVSIIDESKYLLFVNVKDEDLTRVIKNTSSKGECFIALEGTYVENSSTIFSNVSIVKE
notes: Vip3Bc1 ~20 kDa product, as m9; Vip3Bc1 ~65 kDa product, as m10; Vip3Bc1 was processed much more slowly than Vip3Ab1; also called processed Vip3Bc1; source: Vip3Bc1 from Pseudomonas fluorescens, purified, then digested overnight with H. zea gut enzymes; copies: 4 + 4
stoichiometry N [8]: 4

From article PMC5593919, “Functional characterization of Vip3Ab1 and Vip3Bc1: Two novel insecticidal proteins with differential activity against lepidopteran pests” (Scientific Reports, 2017)
